Results taken from PMC6114778, “Divalent cation and chloride ion sites of chicken acid sensing ion channel 1a elucidated by x-ray crystallography” (PLoS ONE, 2018).

B1: chicken ASIC1a Δ13 crystallization construct (residues 14-463 of chicken ASIC1) (domain or fragment, UniProt Q1XA76 14-463, looked up)
chain: GQPVSIQAFASSSTLHGISHIFSYERLSLKRVVWALCFMGSLALLALVCTNRIQYYFLYPHVTKLDEVAATRLTFPAVTFCNLNEFRFSRVTKNDLYHAGELLALLNNRYEIPDTQTADEKQLEILQDKANFRNFKPKPFNMLEFYDRAGHDIREMLLSCFFRGEQCSPEDFKVVFTRYGKCYTFNAGQDGKPRLITMKGGTGNGLEIMLDIQQDEYLPVWGETDETSFEAGIKVQIHSQDEPPLIDQLGFGVAPGFQTFVSCQEQRLIYLPPPWGDCKATTGDSEFYDTYSITACRIDCETRYLVENCNCRMVHMPGDAPYCTPEQYKECADPALDFLVEKDNEYCVCEMPCNVTRYGKELSMVKIPSKASAKYLAKKYNKSEQYIGENILVLDIFFEALNYETIEQKKAYEVAGLLGDIGGQMGLFIGASILTVLELFDYAYEVIKHR
notes: chicken ASIC1 (acid sensing ion channel 1a), residues 14-463; 13 residues removed from the amino-terminus and 64 from the carboxy-terminus; Homotrimeric channel; crystals in space group H3; also called desensitized channel; cASIC1a
B2: chicken ASIC1a Δ25 crystallization construct (residues 25-463 of chicken ASIC1) (domain or fragment, UniProt Q1XA76 25-463, looked up)
chain: SSTLHGISHIFSYERLSLKRVVWALCFMGSLALLALVCTNRIQYYFLYPHVTKLDEVAATRLTFPAVTFCNLNEFRFSRVTKNDLYHAGELLALLNNRYEIPDTQTADEKQLEILQDKANFRNFKPKPFNMLEFYDRAGHDIREMLLSCFFRGEQCSPEDFKVVFTRYGKCYTFNAGQDGKPRLITMKGGTGNGLEIMLDIQQDEYLPVWGETDETSFEAGIKVQIHSQDEPPLIDQLGFGVAPGFQTFVSCQEQRLIYLPPPWGDCKATTGDSEFYDTYSITACRIDCETRYLVENCNCRMVHMPGDAPYCTPEQYKECADPALDFLVEKDNEYCVCEMPCNVTRYGKELSMVKIPSKASAKYLAKKYNKSEQYIGENILVLDIFFEALNYETIEQKKAYEVAGLLGDIGGQMGLFIGASILTVLELFDYAYEVIKHR
notes: chicken ASIC1 (acid sensing ion channel 1a), residues 25-463; 24 residues removed from the amino-terminus and 64 from the carboxy-terminus; Homotrimeric channel; three subunits around a molecular 3-fold axis in the P212121 crystals; also called resting channel; cASIC1a

Assays:
[1] = biological target: the molecule itself; test: crystal structure; Δ13 crystals grown at 20°C, HEPES pH 6.9, sodium formate, PEG 3,350, soaked in 50 mM BaCl2; space group H3; desensitized state; anomalous diffraction
[2] = biological target: the molecule itself; test: crystal structure; Δ25 crystals grown at high pH (Tris pH 8.5) with BaCl2, soaked in 50 mM BaCl2 or 150 mM NaBr; space group P212121; resting state; anomalous diffraction

Protein | binding result [1] | binding result [2]
B1 | binds | –
B2 | – | binds
